The record followed here is IntAct's records for PubMed 19829382.

To fix the notation:
B1: Scaffold protein ILK (Mus musculus), O55222 (parent)
chain: MDDIFTQCREGNAVAVRLWLDNTENDLNQGDDHGFSPLHWACREGRSAVVEMLIMRGARINVMNRGDDTPLHLAASHGHRDIVQKLLQYKADINAVNEHGNVPLHYACFWGQDQVAEDLVANGALVSICNKYGEMPVDKAKAPLRELLRERAEKMGQNLNRIPYKDTFWKGTTRTRPRNGTLNKHSGIDFKQLNFLAKLNENHSGELWKGRWQGNDIVVKVLKVRDWSTRKSRDFNEECPRLRIFSHPNVLPVLGACQAPPAPHPTLITHWMPYGSLYNVLHEGTNFVVDQSQAVKFALDMARGMAFLHTLEPLIPRHALNSRSVMIDEDMTARISMADVKFSFQCPGRMYAPAWVAPEALQKKPEDTNRRSADMWSFAVLLWELVTREVPFADLSNMEIGMKVALEGLRPTIPPGISPHVCKLMKICMNEDPAKRPKFDMIVPILEKMQDK
partner: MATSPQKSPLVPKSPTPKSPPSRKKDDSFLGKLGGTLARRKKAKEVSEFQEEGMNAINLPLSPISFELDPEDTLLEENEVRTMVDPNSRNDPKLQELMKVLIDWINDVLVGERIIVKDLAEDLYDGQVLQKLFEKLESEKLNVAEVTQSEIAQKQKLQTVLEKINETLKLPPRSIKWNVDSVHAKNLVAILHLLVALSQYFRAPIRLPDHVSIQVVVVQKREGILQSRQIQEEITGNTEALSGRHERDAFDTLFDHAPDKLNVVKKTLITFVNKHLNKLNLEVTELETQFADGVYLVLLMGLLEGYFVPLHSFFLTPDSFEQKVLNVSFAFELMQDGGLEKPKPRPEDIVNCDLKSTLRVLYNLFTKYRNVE

This assay covers variants of B1. As to conditions: with parva_mouse Parva.
Take MDDIFTQCREGNAVAVRLWLDNTENDLNQGDDHGFSPLHWACREGRSAVVEMLIMRGARINVMNRGDDTPLHLAASHGHRDIVQKLLQYKADINAVNEHGNVPLHYACFWGQDQVAEDLVANGALVSICNKYGEMPVDKAKAPLRELLRERAEKMGQNLNRIPYKDTFWKGTTRTRPRNGTLNKHSGIDFKQLNFLAKLNENHSGELWKGRWQGNDIVVAVLKVRDWSTRKSRDFNEECPRLRIFSHPNVLPVLGACQAPPAPHPTLITHWMPYGSLYNVLHEGTNFVVDQSQAVKFALDMARGMAFLHTLEPLIPRHALNSRSVMIDEDMTARISMADVKFSFQCPGRMYAPAWVAPEALQKKPEDTNRRSADMWSFAVLLWELVTREVPFADLSNMEIGMKVALEGLRPTIPPGISPHVCKLMKICMNEDPAKRPKFDMIVPILEKMQDK [K220A]: the “effect of a mutation on the interaction” value was “decreasing interaction strength”.

Take MDDIFTQCREGNAVAVRLWLDNTENDLNQGDDHGFSPLHWACREGRSAVVEMLIMRGARINVMNRGDDTPLHLAASHGHRDIVQKLLQYKADINAVNEHGNVPLHYACFWGQDQVAEDLVANGALVSICNKYGEMPVDKAKAPLRELLRERAEKMGQNLNRIPYKDTFWKGTTRTRPRNGTLNKHSGIDFKQLNFLAKLNENHSGELWKGRWQGNDIVVMVLKVRDWSTRKSRDFNEECPRLRIFSHPNVLPVLGACQAPPAPHPTLITHWMPYGSLYNVLHEGTNFVVDQSQAVKFALDMARGMAFLHTLEPLIPRHALNSRSVMIDEDMTARISMADVKFSFQCPGRMYAPAWVAPEALQKKPEDTNRRSADMWSFAVLLWELVTREVPFADLSNMEIGMKVALEGLRPTIPPGISPHVCKLMKICMNEDPAKRPKFDMIVPILEKMQDK [K220M]: the “effect of a mutation on the interaction” value was “decreasing interaction strength”.
